In the assay the target is SM5−1抗原(BIAcore測定に用いた形は記載なし). The experiment in a line: BIAcore (Pharmacia), kinetic analysis after Karlsson et al. For orientation: In SPR one partner is held on a chip, and binding of the other changes the refractive index at the surface.

B1: 抗ヒトSM5−1ヒト化抗体(ReSM5−1) (antibody, V domains shown)
VH: QVQLVQSGGGVVQPGRSLRLSCKASGYTFTSYVMHWVRQAPGKGLEWIGYIVPYNDGTKYNEKFKGRFTISSDKSKSTAFLQMDSLRPEDTAVYYCARGSRYDWYLDYWGQGTPVTVSS
VL: NIMMTQSPSSLSASVGDRVTITCKSSQSVLYSSNQKNYLAWYQQTPGKAPKLLIYWASTRESGVPSRFSGSGSGTDYTFTISSLQPEDIATYYCHQYFSSYTFGQGTKLQITR
In the case of B1, the Kd (as a rule, the equilibrium constant for the complex coming apart) amounted to 9.31 nM.

For the origin of these results see patent publication JP2007535905A.
